# Source: patent US10941182 (Amgen, dated 2021)
# Starred links: 1 amine or outer side, 2 acyl side, 3 side chain; linkers in the order of their positions; H or OH if unused. Non-standard residues stand in square brackets, D forms with d. Primed or numbered codes have the meaning given here. *: point of attachment. AC4Abu = α-carboxy-4-aminobutyric acid, O=C(C(CCN[*:1])C(=O)[*:3])[*:2]; Oic = O=C(O)[C@@H]1C[C@@H]2CCCC[C@@H]2N1; Phe(4-Cl) = N[C@@H](Cc1ccc(Cl)cc1)C(=O)O; γGlu = O=C(O)[C@H](CCC(=O)[*:2])N[*:1]; 2Nal = N[C@@H](Cc1ccc2ccccc2c1)C(=O)O; NMeR = CN[C@@H](CCCNC(=N)N)C(=O)O; Tridecanoyl = CCCCCCCCCCCCC(=O)*; hArg = N=C(N)NCCCC[C@H](N)C(=O)O; Cha = N[C@@H](CC1CCCCC1)C(=O)O; αMeL = CC(C)C[C@](C)(N)C(=O)O; αMeP = C[C@@]1(C(=O)O)CCCN1; Nle = CCCC[C@H](N)C(=O)O; Pip′ = not defined here; AEEA = NCCOCCOCC(=O)O; Aib = CC(C)(N)C(=O)O; BLeu = β-leucine
# T1: rat APJ receptor (rat, UniProt Q9JHG3 1-377)
# T1 sequence (looked up): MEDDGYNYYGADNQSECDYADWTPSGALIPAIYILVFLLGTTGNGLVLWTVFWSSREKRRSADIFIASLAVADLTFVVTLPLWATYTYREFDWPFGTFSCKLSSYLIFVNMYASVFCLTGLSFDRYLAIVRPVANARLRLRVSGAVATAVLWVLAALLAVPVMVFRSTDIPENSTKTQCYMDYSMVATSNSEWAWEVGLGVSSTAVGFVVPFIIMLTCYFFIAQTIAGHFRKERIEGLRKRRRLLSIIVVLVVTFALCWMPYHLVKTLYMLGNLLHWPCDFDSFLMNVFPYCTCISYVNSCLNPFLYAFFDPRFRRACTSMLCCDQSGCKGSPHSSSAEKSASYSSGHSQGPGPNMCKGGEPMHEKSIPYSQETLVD
# T2: human APJ receptor (human, UniProt P35414 1-380)
# T2 sequence (looked up): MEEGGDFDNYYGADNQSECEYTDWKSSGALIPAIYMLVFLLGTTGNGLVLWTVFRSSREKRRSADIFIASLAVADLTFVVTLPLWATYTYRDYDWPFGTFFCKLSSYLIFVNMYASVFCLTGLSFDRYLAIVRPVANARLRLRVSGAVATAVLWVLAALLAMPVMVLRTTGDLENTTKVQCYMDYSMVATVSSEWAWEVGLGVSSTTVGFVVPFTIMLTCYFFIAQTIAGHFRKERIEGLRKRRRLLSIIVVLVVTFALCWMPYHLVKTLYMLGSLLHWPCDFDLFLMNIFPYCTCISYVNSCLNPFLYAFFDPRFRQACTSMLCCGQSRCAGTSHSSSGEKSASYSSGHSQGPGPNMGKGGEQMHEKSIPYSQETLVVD
# B1: Apelin polypeptide SEQ ID NO: 376 (peptide)
# peptide: Tridecanoyl-[γGlu][AEEA][AEEA]QRP[NMeR][αMeL]SHKG[Oic][Nle][αMeP][Phe(4-Cl)]-OH
# SMILES: CCCCCCCCCCCCC(=O)N[C@@H](CCC(=O)NCCOCCOCC(=O)NCCOCCOCC(=O)N[C@@H](CCC(N)=O)C(=O)N[C@@H](CCCNC(=N)N)C(=O)N1CCC[C@H]1C(=O)N(C)[C@@H](CCCNC(=N)N)C(=O)N[C@@](C)(CC(C)C)C(=O)N[C@@H](CO)C(=O)N[C@@H](Cc1c[nH]cn1)C(=O)N[C@@H](CCCCN)C(=O)NCC(=O)N1[C@H](C(=O)N[C@@H](CCCC)C(=O)N2CCC[C@@]2(C)C(=O)N[C@@H](Cc2ccc(Cl)cc2)C(=O)O)C[C@@H]2CCCC[C@@H]21)C(=O)O
# B2: Apelin polypeptide SEQ ID NO: 360 (peptide)
# peptide: Tridecanoyl-[γGlu][AEEA][AEEA]QRP[hArg][αMeL]SHKG[Oic][Nle]P[Phe(4-Cl)]-OH
# SMILES: CCCCCCCCCCCCC(=O)N[C@@H](CCC(=O)NCCOCCOCC(=O)NCCOCCOCC(=O)N[C@@H](CCC(N)=O)C(=O)N[C@@H](CCCNC(=N)N)C(=O)N1CCC[C@H]1C(=O)N[C@@H](CCCCNC(=N)N)C(=O)N[C@@](C)(CC(C)C)C(=O)N[C@@H](CO)C(=O)N[C@@H](Cc1c[nH]cn1)C(=O)N[C@@H](CCCCN)C(=O)NCC(=O)N1[C@H](C(=O)N[C@@H](CCCC)C(=O)N2CCC[C@H]2C(=O)N[C@@H](Cc2ccc(Cl)cc2)C(=O)O)C[C@@H]2CCCC[C@@H]21)C(=O)O
# B3: Apelin polypeptide SEQ ID NO: 404 (peptide)
# peptide: Tridecanoyl-[AC4Abu][AEEA][AEEA]QRP[hArg][αMeL]SHKGP[Nle]P[2Nal]-OH
# SMILES: CCCCCCCCCCCCC(=O)NCCC(C(=O)O)C(=O)NCCOCCOCC(=O)NCCOCCOCC(=O)N[C@@H](CCC(N)=O)C(=O)N[C@@H](CCCNC(=N)N)C(=O)N1CCC[C@H]1C(=O)N[C@@H](CCCCNC(=N)N)C(=O)N[C@@](C)(CC(C)C)C(=O)N[C@@H](CO)C(=O)N[C@@H](Cc1c[nH]cn1)C(=O)N[C@@H](CCCCN)C(=O)NCC(=O)N1CCC[C@H]1C(=O)N[C@@H](CCCC)C(=O)N1CCC[C@H]1C(=O)N[C@@H](Cc1ccc2ccccc2c1)C(=O)O
# B4: Apelin polypeptide SEQ ID NO: 528 (peptide)
# peptide: Tridecanoyl-[γGlu][AEEA][AEEA][dQ]RP[Nle][Cha]SHKG[Oic][Nle][Aib][Phe(4-Cl)]-OH
# SMILES: CCCCCCCCCCCCC(=O)N[C@@H](CCC(=O)NCCOCCOCC(=O)NCCOCCOCC(=O)N[C@H](CCC(N)=O)C(=O)N[C@@H](CCCNC(=N)N)C(=O)N1CCC[C@H]1C(=O)N[C@@H](CCCC)C(=O)N[C@@H](CC1CCCCC1)C(=O)N[C@@H](CO)C(=O)N[C@@H](Cc1c[nH]cn1)C(=O)N[C@@H](CCCCN)C(=O)NCC(=O)N1[C@H](C(=O)N[C@@H](CCCC)C(=O)NC(C)(C)C(=O)N[C@@H](Cc2ccc(Cl)cc2)C(=O)O)C[C@@H]2CCCC[C@@H]21)C(=O)O
# B5: Apelin polypeptide SEQ ID NO: 356 (peptide)
# peptide: Tridecanoyl-[γGlu][AEEA][AEEA]QRP[hArg]LSHKG[Oic][Nle]P[Phe(4-Cl)]-OH
# SMILES: CCCCCCCCCCCCC(=O)N[C@@H](CCC(=O)NCCOCCOCC(=O)NCCOCCOCC(=O)N[C@@H](CCC(N)=O)C(=O)N[C@@H](CCCNC(=N)N)C(=O)N1CCC[C@H]1C(=O)N[C@@H](CCCCNC(=N)N)C(=O)N[C@@H](CC(C)C)C(=O)N[C@@H](CO)C(=O)N[C@@H](Cc1c[nH]cn1)C(=O)N[C@@H](CCCCN)C(=O)NCC(=O)N1[C@H](C(=O)N[C@@H](CCCC)C(=O)N2CCC[C@H]2C(=O)N[C@@H](Cc2ccc(Cl)cc2)C(=O)O)C[C@@H]2CCCC[C@@H]21)C(=O)O
# B6: Apelin polypeptide SEQ ID NO: 476 (peptide)
# peptide: Tridecanoyl-[γGlu][AEEA][AEEA]QRE[NMeR]LSHKGP[Nle]P[Phe(4-Cl)]-OH
# SMILES: CCCCCCCCCCCCC(=O)N[C@@H](CCC(=O)NCCOCCOCC(=O)NCCOCCOCC(=O)N[C@@H](CCC(N)=O)C(=O)N[C@@H](CCCNC(=N)N)C(=O)N[C@@H](CCC(=O)O)C(=O)N(C)[C@@H](CCCNC(=N)N)C(=O)N[C@@H](CC(C)C)C(=O)N[C@@H](CO)C(=O)N[C@@H](Cc1c[nH]cn1)C(=O)N[C@@H](CCCCN)C(=O)NCC(=O)N1CCC[C@H]1C(=O)N[C@@H](CCCC)C(=O)N1CCC[C@H]1C(=O)N[C@@H](Cc1ccc(Cl)cc1)C(=O)O)C(=O)O
# B7: Apelin polypeptide SEQ ID NO: 428 (peptide)
# peptide: Tridecanoyl-[γGlu][AEEA][AEEA]QRP[Nle]LSHKGP[Nle]P[Phe(4-Cl)]-OH
# SMILES: CCCCCCCCCCCCC(=O)N[C@@H](CCC(=O)NCCOCCOCC(=O)NCCOCCOCC(=O)N[C@@H](CCC(N)=O)C(=O)N[C@@H](CCCNC(=N)N)C(=O)N1CCC[C@H]1C(=O)N[C@@H](CCCC)C(=O)N[C@@H](CC(C)C)C(=O)N[C@@H](CO)C(=O)N[C@@H](Cc1c[nH]cn1)C(=O)N[C@@H](CCCCN)C(=O)NCC(=O)N1CCC[C@H]1C(=O)N[C@@H](CCCC)C(=O)N1CCC[C@H]1C(=O)N[C@@H](Cc1ccc(Cl)cc1)C(=O)O)C(=O)O
# B8: Apelin polypeptide SEQ ID NO: 308 (peptide)
# peptide: Tridecanoyl-[γGlu][AEEA][AEEA]QRP[hArg][Cha]SHKG[Oic][Nle]P[Phe(4-Cl)]-OH
# SMILES: CCCCCCCCCCCCC(=O)N[C@@H](CCC(=O)NCCOCCOCC(=O)NCCOCCOCC(=O)N[C@@H](CCC(N)=O)C(=O)N[C@@H](CCCNC(=N)N)C(=O)N1CCC[C@H]1C(=O)N[C@@H](CCCCNC(=N)N)C(=O)N[C@@H](CC1CCCCC1)C(=O)N[C@@H](CO)C(=O)N[C@@H](Cc1c[nH]cn1)C(=O)N[C@@H](CCCCN)C(=O)NCC(=O)N1[C@H](C(=O)N[C@@H](CCCC)C(=O)N2CCC[C@H]2C(=O)N[C@@H](Cc2ccc(Cl)cc2)C(=O)O)C[C@@H]2CCCC[C@@H]21)C(=O)O
# B9: Apelin polypeptide SEQ ID NO: 529 (peptide)
# peptide: Tridecanoyl-[γGlu][AEEA][AEEA][dQ]RP[Nle][Cha]SAKG[Oic][Nle][Aib][Phe(4-Cl)]-OH
# SMILES: CCCCCCCCCCCCC(=O)N[C@@H](CCC(=O)NCCOCCOCC(=O)NCCOCCOCC(=O)N[C@H](CCC(N)=O)C(=O)N[C@@H](CCCNC(=N)N)C(=O)N1CCC[C@H]1C(=O)N[C@@H](CCCC)C(=O)N[C@@H](CC1CCCCC1)C(=O)N[C@@H](CO)C(=O)N[C@@H](C)C(=O)N[C@@H](CCCCN)C(=O)NCC(=O)N1[C@H](C(=O)N[C@@H](CCCC)C(=O)NC(C)(C)C(=O)N[C@@H](Cc2ccc(Cl)cc2)C(=O)O)C[C@@H]2CCCC[C@@H]21)C(=O)O
# B10: Apelin polypeptide SEQ ID NO: 446 (peptide)
# peptide: Tridecanoyl-[γGlu][AEEA][AEEA]QR[NMeR][Cha]SHKG[Oic][Nle]P[Phe(4-Cl)]-OH
# SMILES: CCCCCCCCCCCCC(=O)N[C@@H](CCC(=O)NCCOCCOCC(=O)NCCOCCOCC(=O)N[C@@H](CCC(N)=O)C(=O)N[C@@H](CCCNC(=N)N)C(=O)N(C)[C@@H](CCCNC(=N)N)C(=O)N[C@@H](CC1CCCCC1)C(=O)N[C@@H](CO)C(=O)N[C@@H](Cc1c[nH]cn1)C(=O)N[C@@H](CCCCN)C(=O)NCC(=O)N1[C@H](C(=O)N[C@@H](CCCC)C(=O)N2CCC[C@H]2C(=O)N[C@@H](Cc2ccc(Cl)cc2)C(=O)O)C[C@@H]2CCCC[C@@H]21)C(=O)O
# Biological target: T1, rat APJ receptor
# Test: cell-based or functional assay
row,EC50 Rat APJ Receptor (GTPγS assay),Binder
1,0.414 nM,B1
2,3.22 nM,Tridecanoyl-[γGlu][AEEA][AEEA][dQ]R[Pip′][NMeR][Cha]SHKG[Oic][Nle][Aib][Phe(4-Cl)]-OH [Apelin polypeptide SEQ ID NO: 517]
3,0.0827 nM,B2
4,0.361 nM,B3
5,21.8 nM,B4
6,0.289 nM,B5
7,0.873 nM,B6
8,0.494 nM,B7
9,0.411 nM,Tridecanoyl-[γGlu][AEEA][AEEA][dQ]RP[hArg][BLeu]SHKG[Oic][Nle]P[Phe(4-Cl)]-OH [Apelin polypeptide SEQ ID NO: 378]
10,0.18 nM,B8
11,4.26 nM,Tridecanoyl-[γGlu][AEEA][AEEA]QR[Pip′][NMeR][Cha]SHKG[Oic][Nle]P[Phe(4-Cl)]-OH [Apelin polypeptide SEQ ID NO: 440]
12,24 nM,B9
13,3.21 nM,Tridecanoyl-[γGlu][AEEA][AEEA][dQ]R[Pip′][hArg][BLeu]SHKG[Oic][Nle][Aib][Phe(4-Cl)]-OH [Apelin polypeptide SEQ ID NO: 521]
14,1.9 nM,B10

# Biological target: T2, human APJ receptor
# Test: cell-based or functional assay
row,EC50 Human APJ Receptor (GTPγS assay),Binder
1,0.237 nM,B1
2,0.62 nM,Tridecanoyl-[γGlu][AEEA][AEEA][dQ]R[Pip′][NMeR][Cha]SHKG[Oic][Nle][Aib][Phe(4-Cl)]-OH [Apelin polypeptide SEQ ID NO: 517]
3,0.0519 nM,B2
4,0.298 nM,B3
5,5.63 nM,B4
6,0.321 nM,B5
7,0.346 nM,B6
8,0.4 nM,B7
9,0.26 nM,Tridecanoyl-[γGlu][AEEA][AEEA][dQ]RP[hArg][BLeu]SHKG[Oic][Nle]P[Phe(4-Cl)]-OH [Apelin polypeptide SEQ ID NO: 378]
10,0.0867 nM,B8
11,3.48 nM,Tridecanoyl-[γGlu][AEEA][AEEA]QR[Pip′][NMeR][Cha]SHKG[Oic][Nle]P[Phe(4-Cl)]-OH [Apelin polypeptide SEQ ID NO: 440]
12,5.26 nM,B9
13,1.03 nM,Tridecanoyl-[γGlu][AEEA][AEEA][dQ]R[Pip′][hArg][BLeu]SHKG[Oic][Nle][Aib][Phe(4-Cl)]-OH [Apelin polypeptide SEQ ID NO: 521]
14,1.11 nM,B10
